Assay results published in the supplement of paper PMC10567573.

B1: USP39 (parent)
chain: TLSEAYIQIWKRRDNDETNQQGA
B2: HDAC6 (parent)
chain: DLMETTQYMNEGELRVLADTYDSV

Variants of: B1
Test: protein stability index of a GFP-peptide fusion (GPS, HEK-293T) (PSI 1-6); higher = more stable
Conditions: c terminus: native
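Note: lentivirally expressed fusions sorted by FACS into six bins by GFP to DsRed ratio, PSI derived from sequencing read proportions per bin multiplied by bin number.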

Variant | protein stability index
TLSEAYIQIWKRRDNGETNQQGA [D16G] | 1.65

Variants of: B2
Test: as above
Conditions: c terminus: a fixed tail appended

Variant | protein stability index
DLMETTQYANEGELRVLADTYDSV [M9A] | 4.57
DLMETTQYGNEGELRVLADTYDSV [M9G] | 4.71
DLMETTQYTNEGELRVLADTYDSV [M9T] | 4.82
DLMETTQYPNEGELRVLADTYDSV [M9P] | 4.55
DLMETTQYENEGELRVLADTYDSV [M9E] | 4.61
DLMETTQYNNEGELRVLADTYDSV [M9N] | 4.12
DLMETTQYCNEGELRVLADTYDSV [M9C] | 4.25
DLMETTQYHNEGELRVLADTYDSV [M9H] | 4.55
DLMETTQYWNEGELRVLADTYDSV [M9W] | 3.37
DLMETTQYINEGELRVLADTYDSV [M9I] | 4.14
DLMETTQYVNEGELRVLADTYDSV [M9V] | 3.6
DLMETTQYQNEGELRVLADTYDSV [M9Q] | 4.92
DLMETTQYRNEGELRVLADTYDSV [M9R] | 4.28
DLMETTQYKNEGELRVLADTYDSV [M9K] | 4.24
DLMETTQYDNEGELRVLADTYDSV [M9D] | 4.95
DLMETTQYFNEGELRVLADTYDSV [M9F] | 3.44
DLMETTQYSNEGELRVLADTYDSV [M9S] | 4.68
DLMETTQYYNEGELRVLADTYDSV [M9Y] | 4.31
DLMETTQYLNEGELRVLADTYDSV [M9L] | 3.84
DLMETWQYMNEGELRVLADTYDSV [T6W] | 1.73
DLMETCQYMNEGELRVLADTYDSV [T6C] | 2.5
DLMETSQYMNEGELRVLADTYDSV [T6S] | 1.56
DLMETGQYMNEGELRVLADTYDSV [T6G] | 3.57
DLMETPQYMNEGELRVLADTYDSV [T6P] | 2.3

Variant | protein stability index
DLMETNQYMNEGELRVLADTYDSV [T6N] | 2.42
DLMETRQYMNEGELRVLADTYDSV [T6R] | 2.24
DLMETQQYMNEGELRVLADTYDSV [T6Q] | 1.94
DLMETAQYMNEGELRVLADTYDSV [T6A] | 1.75
DLMETMQYMNEGELRVLADTYDSV [T6M] | 1.63
DLMETVQYMNEGELRVLADTYDSV [T6V] | 1.46
DLMETKQYMNEGELRVLADTYDSV [T6K] | 1.02
DLMETEQYMNEGELRVLADTYDSV [T6E] | 2.88
DLMETHQYMNEGELRVLADTYDSV [T6H] | 2.29
DLMETYQYMNEGELRVLADTYDSV [T6Y] | 1.66
DLMETFQYMNEGELRVLADTYDSV [T6F] | 1.44
DLMETTQYMNPGELRVLADTYDSV [E11P] | 3.65
DLMETTQYMNRGELRVLADTYDSV [E11R] | 3.19
DLMETTQYMNGGELRVLADTYDSV [E11G] | 3.58
DLMETTQYMNIGELRVLADTYDSV [E11I] | 1.86
DLMETTQYMNQGELRVLADTYDSV [E11Q] | 2.6
DLMETTQYMNLGELRVLADTYDSV [E11L] | 2.6
DLMETTQYMNNGELRVLADTYDSV [E11N] | 3.13
DLMETTQYMNAGELRVLADTYDSV [E11A] | 2.15
DLMETTQYMNMGELRVLADTYDSV [E11M] | 3.15
DLMETTQYMNFGELRVLADTYDSV [E11F] | 2
DLMETTQYMNCGELRVLADTYDSV [E11C] | 2.47
DLMETTQYMNKGELRVLADTYDSV [E11K] | 2.89
DLMETTQYMNHGELRVLADTYDSV [E11H] | 2.78

Variant | protein stability index
DLMETTQYMNDGELRVLADTYDSV [E11D] | 1.69
DLMETTRYMNEGELRVLADTYDSV [Q7R] | 1.14
DLMETTVYMNEGELRVLADTYDSV [Q7V] | 1.67
DLMETTPYMNEGELRVLADTYDSV [Q7P] | 3.69
DLMETTLYMNEGELRVLADTYDSV [Q7L] | 2.12
DLMETTKYMNEGELRVLADTYDSV [Q7K] | 2.12
DLMETTHYMNEGELRVLADTYDSV [Q7H] | 1.14
DLMETTNYMNEGELRVLADTYDSV [Q7N] | 2.12
DLMETTEYMNEGELRVLADTYDSV [Q7E] | 1.97
DLMETTGYMNEGELRVLADTYDSV [Q7G] | 2.05
DLMETTYYMNEGELRVLADTYDSV [Q7Y] | 2.52
DLMETTDYMNEGELRVLADTYDSV [Q7D] | 2.35
DLMETTAYMNEGELRVLADTYDSV [Q7A] | 1.53
DLMETTSYMNEGELRVLADTYDSV [Q7S] | 2.02
DLMETTTYMNEGELRVLADTYDSV [Q7T] | 2.37
DLMPTTQYMNEGELRVLADTYDSV [E4P] | 2.23
DLMRTTQYMNEGELRVLADTYDSV [E4R] | 3.36
DLMCTTQYMNEGELRVLADTYDSV [E4C] | 1.74
DLMVTTQYMNEGELRVLADTYDSV [E4V] | 1.83
DLMDTTQYMNEGELRVLADTYDSV [E4D] | 2.52
DLMKTTQYMNEGELRVLADTYDSV [E4K] | 2.09
DLMWTTQYMNEGELRVLADTYDSV [E4W] | 1.5
DLMYTTQYMNEGELRVLADTYDSV [E4Y] | 1.51
DLMNTTQYMNEGELRVLADTYDSV [E4N] | 1.98

Variant | protein stability index
DLMATTQYMNEGELRVLADTYDSV [E4A] | 2.03
DLMQTTQYMNEGELRVLADTYDSV [E4Q] | 3.94
DLMHTTQYMNEGELRVLADTYDSV [E4H] | 2.18
DLMTTTQYMNEGELRVLADTYDSV [E4T] | 3
DLMSTTQYMNEGELRVLADTYDSV [E4S] | 1.78
DLMGTTQYMNEGELRVLADTYDSV [E4G] | 1.7
DLMMTTQYMNEGELRVLADTYDSV [E4M] | 1.31
DLMFTTQYMNEGELRVLADTYDSV [E4F] | 1.48
DLMITTQYMNEGELRVLADTYDSV [E4I] | 1.11
WLMETTQYMNEGELRVLADTYDSV [D1W] | 1.55
MLMETTQYMNEGELRVLADTYDSV [D1M] | 1.54
PLMETTQYMNEGELRVLADTYDSV [D1P] | 4.29
ELMETTQYMNEGELRVLADTYDSV [D1E] | 2.22
ALMETTQYMNEGELRVLADTYDSV [D1A] | 1.77
TLMETTQYMNEGELRVLADTYDSV [D1T] | 2.27
RLMETTQYMNEGELRVLADTYDSV [D1R] | 3.01
ILMETTQYMNEGELRVLADTYDSV [D1I] | 3.02
GLMETTQYMNEGELRVLADTYDSV [D1G] | 3.06
LLMETTQYMNEGELRVLADTYDSV [D1L] | 2.05
HLMETTQYMNEGELRVLADTYDSV [D1H] | 1.53
QLMETTQYMNEGELRVLADTYDSV [D1Q] | 2.25
